Results: US10280205B2, “Method for treating cancer with an activated T lymphocyte that selectively recognizes a cancer cell consisting of specific peptide” (immatics biotechnologies GmbH, priority 2015, dated 2019)

Target: HLA-A*02:01 (Homo sapiens, UniProt P04439, D140Y/D185E/D98H/E176V/E277Q/G131W/G231S/I119V/I121R/I166T/I218V/L300P/L318F/N151K/N90K/P208A/P217A/Q86G/Q94H/R138H/R169H/T345S)
Assay: MHC binding assay: UV-ligand exchange with beta2m ELISA (exchange yield)
Conditions: binding to HLA-A*02:01, β2m ELISA
In short: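 Exchange yield reflects how much β2m remains bound, measured by ELISA: streptavidin capture of 100-fold diluted monomers, HRP anti-β2m at 37° C. for 1 h, TMB read at 450 nm. Monomers come from UV cleavage of a conditional HLA-A*02:01 ligand in the presence of the candidate peptide.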

Substance | Peptide exchange (MHC class I binding score, peptide exchange yield)
496 (FLVEKQPPQV; listed as Homo sapiens) [compound 496] | “+++” (≥50 = +++)
497 (GLLEKLTAI; listed as Homo sapiens) [compound 497] | “+++” (≥50 = +++)
498 (KLWTGGLDNTV; listed as Homo sapiens) [compound 498] | “+++” (≥50 = +++)
500 (SLMEDQVLQL; listed as Homo sapiens) [compound 500] | “+++” (≥50 = +++)
501 (LLDPNVKSIFV; listed as Homo sapiens) [compound 501] | “+++” (≥50 = +++)
502 (RLLAQVPGL; listed as Homo sapiens) [compound 502] | “+++” (≥50 = +++)
503 (SLNHFTHSV; listed as Homo sapiens) [compound 503] | “+++” (≥50 = +++)
504 (GLSDGNPSL; listed as Homo sapiens) [compound 504] | “++” (≥20% = ++)
505 (SLAPGDVVRQV; listed as Homo sapiens) [compound 505] | “++” (≥20% = ++)
506 (KLLGKVETA; listed as Homo sapiens) [compound 506] | “+++” (≥50 = +++)
507 (KLIDDQDISISL; listed as Homo sapiens) [compound 507] | “+++” (≥50 = +++)
508 (ILAQEQLVVGV; listed as Homo sapiens) [compound 508] | “+++” (≥50 = +++)
509 (FLFDTKPLIV; listed as Homo sapiens) [compound 509] | “+++” (≥50 = +++)
510 (KLYSVVSQL; listed as Homo sapiens) [compound 510] | “++” (≥20% = ++)
512 (SLSEIVPCL; listed as Homo sapiens) [compound 512] | “+++” (≥50 = +++)
513 (SLWPSPEQL; listed as Homo sapiens) [compound 513] | “++” (≥20% = ++)
514 (ILVDWLVQV; listed as Homo sapiens) [compound 514] | “+++” (≥50 = +++)
515 (LLQELVLFL; listed as Homo sapiens) [compound 515] | “+++” (≥50 = +++)
516 (AVGPASILKEV; listed as Homo sapiens) [compound 516] | “++” (≥20% = ++)
517 (LLMPIPEGLTL; listed as Homo sapiens) [compound 517] | “+++” (≥50 = +++)
518 (KLNAEVACV; listed as Homo sapiens) [compound 518] | “+++” (≥50 = +++)

Substance | Peptide exchange (MHC class I binding score, peptide exchange yield)
519 (GLLHLTLLL; listed as Homo sapiens) [compound 519] | “+++” (≥50 = +++)
520 (LAVHPSGVAL; listed as Homo sapiens) [compound 520] | “+” (≥10% = +)
521 (MLLTKLPTI; listed as Homo sapiens) [compound 521] | “+++” (≥50 = +++)
522 (TLWYRSPEV; listed as Homo sapiens) [compound 522] | “++” (≥20% = ++)
523 (YQIPRTFTL; listed as Homo sapiens) [compound 523] | “++” (≥20% = ++)
524 (ALIENLTHQI; listed as Homo sapiens) [compound 524] | “++” (≥20% = ++)
525 (VLLEAGEGLVTI; listed as Homo sapiens) [compound 525] | “+++” (≥50 = +++)
526 (RLAEVGQYEQV; listed as Homo sapiens) [compound 526] | “++” (≥20% = ++)
527 (FLLEPGNLEV; listed as Homo sapiens) [compound 527] | “++++” (≥75% = ++++)
528 (SVAEGRALMSV; listed as Homo sapiens) [compound 528] | “+++” (≥50 = +++)
529 (LLADELITV; listed as Homo sapiens) [compound 529] | “+++” (≥50 = +++)
530 (VMYADIGGMDI; listed as Homo sapiens) [compound 530] | “+++” (≥50 = +++)
531 (YTLPIASSIRL; listed as Homo sapiens) [compound 531] | “+++” (≥50 = +++)
537 (TLAPGEVLRSV; listed as Homo sapiens) [compound 537] | “+++” (≥50 = +++)
538 (LLLAHIIAL; listed as Homo sapiens) [compound 538] | “++” (≥20% = ++)
539 (ALFDAQAQV; listed as Homo sapiens) [compound 539] | “+++” (≥50 = +++)
541 (SMLEPVPEL; listed as Homo sapiens) [compound 541] | “+++” (≥50 = +++)
542 (RVWDISTVSSV; listed as Homo sapiens) [compound 542] | “+++” (≥50 = +++)
543 (GLLPTPITQQASL; listed as Homo sapiens) [compound 543] | “+++” (≥50 = +++)
544 (LLWDVPAPSL; listed as Homo sapiens) [compound 544] | “+++” (≥50 = +++)
545 (LLADLLHNV; listed as Homo sapiens) [compound 545] | “+++” (≥50 = +++)

Substance | Peptide exchange (MHC class I binding score, peptide exchange yield)
546 (VMIAGKVAVV; listed as Homo sapiens) [compound 546] | “+++” (≥50 = +++)
547 (TLDITPHTV; listed as Homo sapiens) [compound 547] | “+++” (≥50 = +++)
548 (ALWENPESGEL; listed as Homo sapiens) [compound 548] | “++” (≥20% = ++)
549 (AMLENASDIKL; listed as Homo sapiens) [compound 549] | “+++” (≥50 = +++)
550 (FLYDEIEAEVNL; listed as Homo sapiens) [compound 550] | “+++” (≥50 = +++)
551 (KLYESLLPFA; listed as Homo sapiens) [compound 551] | “+++” (≥50 = +++)
552 (GLLDLPFRVGV; listed as Homo sapiens) [compound 552] | “++++” (≥75% = ++++)
553 (SLLNQDLHWSL; listed as Homo sapiens) [compound 553] | “++++” (≥75% = ++++)
554 (LLMPSSEDLLL; listed as Homo sapiens) [compound 554] | “+++” (≥50 = +++)
555 (YVLEGLKSV; listed as Homo sapiens) [compound 555] | “+++” (≥50 = +++)
556 (FLTDLEDLTL; listed as Homo sapiens) [compound 556] | “+++” (≥50 = +++)
557 (KLYDDMIRL; listed as Homo sapiens) [compound 557] | “+++” (≥50 = +++)
558 (GLLENIPRV; listed as Homo sapiens) [compound 558] | “+++” (≥50 = +++)
559 (VTVPPGPSL; listed as Homo sapiens) [compound 559] | “++” (≥20% = ++)
560 (ALWDIETGQQTTT; listed as Homo sapiens) [compound 560] | “+++” (≥50 = +++)
561 (YLQLTQSEL; listed as Homo sapiens) [compound 561] | “+++” (≥50 = +++)
562 (YLEELPEKLKL; listed as Homo sapiens) [compound 562] | “+++” (≥50 = +++)
563 (WLLPYNGVTV; listed as Homo sapiens) [compound 563] | “+++” (≥50 = +++)
564 (TVTNAVVTV; listed as Homo sapiens) [compound 564] | “+++” (≥50 = +++)
